Data reported in publication PMC6764946, “Non-enzymatic roles of human RAD51 at stalled replication forks”.

How the values were obtained:
hsRAD51-WT = hsRAD51-WT (Homo sapiens, UniProt Q06609 1-339); experiment: fluorescence polarization; 1 mM ATP, 1 mM MgCl2, 50 uM CaCl2; apparent Kd; 25 mM Tris-HCl pH 7.8, 1 mM MgCl2, 1 mM ATP, 1 mM DTT, 50 mM NaCl (printed NaCl2), 50 uM CaCl2, 100 ug/ml BSA, 37 C, 30 min; 2.4 nM oligo, RAD51 10-1000 nM; settings: protein: recombinant; tags: C-terminal His6; label: 5' Alexa Fluor 488 (Methods; legend says fluorescein); single strand
Sequence of hsRAD51-WT (Q06609 whole entry): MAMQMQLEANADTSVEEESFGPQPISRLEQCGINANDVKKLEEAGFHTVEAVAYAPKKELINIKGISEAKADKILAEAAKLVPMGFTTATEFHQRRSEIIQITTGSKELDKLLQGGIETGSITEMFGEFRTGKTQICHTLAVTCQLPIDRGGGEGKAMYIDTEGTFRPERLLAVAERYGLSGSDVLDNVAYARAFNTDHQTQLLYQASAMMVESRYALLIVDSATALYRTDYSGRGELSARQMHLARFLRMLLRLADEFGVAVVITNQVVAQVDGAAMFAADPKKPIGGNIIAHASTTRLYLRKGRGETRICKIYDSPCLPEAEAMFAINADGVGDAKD

hsRAD51-II3A = hsRAD51-II3A (Homo sapiens, UniProt Q06609 1-339, R130A;R303A;K313A); experiment: fluorescence polarization; 1 mM ATP, 1 mM MgCl2, 50 uM CaCl2; apparent Kd; modest binding defect; 25 mM Tris-HCl pH 7.8, 1 mM MgCl2, 1 mM ATP, 1 mM DTT, 50 mM NaCl (printed NaCl2), 50 uM CaCl2, 100 ug/ml BSA, 37 C, 30 min; 2.4 nM oligo, RAD51 10-1000 nM; settings: protein: recombinant; tags: C-terminal His6; label: 5' Alexa Fluor 488 (Methods; legend says fluorescein); single strand
Sequence of hsRAD51-II3A (Q06609 whole entry R130A/R303A/K313A): as the sequence (Q06609 whole entry) above, with R130A, R303A, K313A counted along it

B1: 84-mer ssDNA (ssDNA)
DNA: GGTAGCGGTTGGGTGAGTGGTGGGGAGGGTCGGGAGGTGGCGTAGAAACATGATAGGAATGTGAATGAATGAAGTACAAGTAAA
B1 gave a Kd (hsRAD51-WT) of 57 ± 1 nM and a Kd (hsRAD51-II3A) of 132 ± 5 nM.
